This is an account of results in patent publication US20250074980A1 (BRIGHAM AND WOMEN S HOSPITAL, published 2025).

The target of experiment [1] is T1, CEACAM3 (recombinant protein) (human, UniProt P40198 35-155, limits assumed).
T1 construct: construct not described
T1 sequence (looked up): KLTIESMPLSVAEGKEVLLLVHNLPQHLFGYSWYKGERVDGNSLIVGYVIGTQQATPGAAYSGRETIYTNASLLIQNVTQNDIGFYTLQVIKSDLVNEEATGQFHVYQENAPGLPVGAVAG
Nature of the experiment: SPR single-cycle kinetics, antibody captured on Protein A, CEACAM-3 injected at three rising concentrations. On the procedure:
(§1) In order to assess the binding of the humanized, affinity matured reformatted lead IgGs, single-cycle kinetics analysis was performed on crude supernatants using a Biacore T200 running Biacore T200 Control Software V2.0.1 and Biacore T200 Evaluation Software V3.0. Antibodies were diluted in HBS-P+ to a final concentration of 0.5 μg/ml. At the start of each cycle, antibodies were loaded onto Fc2, Fc3 and Fc4 of the Protein A chip. IgGs were captured at a flow rate of 10 μl/min to give an immobilisation level (RL) of ˜100 RU (a level calculated to obtain a Rₘₐₓ of ˜50-150 RU once the analyte is bound). The surface was then allowed to stabilize. Single-cycle kinetics data was obtained with CEACAM1 as the analyte at a flow rate of 80 μl/min to minimize any potential mass transfer effects. Multiple repeats with the parent (VH1/Vκ8 S29A) antibody were performed to check the stability of the surface and analyte over the kinetic cycles. The signal from the reference channel Fc1 (no antibody) was subtracted from that of Fc2, Fc3 and Fc4 to correct for differences in non-specific binding to the reference surface. A three point, two-fold dilution range from 70 nM to 280 nM CEACAM1 without regeneration between each concentration was used. The signal from each antibody blank run (no CEACAM1) was subtracted to correct for differences in surface stability. The association phase for the three injections of increasing concentrations of CEACAM1 was monitored for 80 seconds each time and a single dissociation phase was measured for 150 seconds following the last injection of CEACAM1. Regeneration of the Protein A surface was conducted using two injections of 10 mM glycine-HCL pH 1.5 followed by a stabilization period of 250 seconds.
(§2) To further assess the binding selectivity of CEACAM1 antibodies VH0/Vκ0, CP08H03/Vκ8 S29A, CP08H03/CP08F05 CEACAM1 over other proteins, binding affinities to CEACAM1, CEACAM3, CEACAM5, and CEACAM6 were compared using single-cycle kinetics analysis performed as described above. Single cycle kinetics was conducted using CEACAM concentrations from 280 nM to 70 nM.

In experiment [2] the target is T2, CEACAM6 (recombinant protein) (human, UniProt P40199 35-320).
T2 construct: construct not described
T2 sequence (looked up): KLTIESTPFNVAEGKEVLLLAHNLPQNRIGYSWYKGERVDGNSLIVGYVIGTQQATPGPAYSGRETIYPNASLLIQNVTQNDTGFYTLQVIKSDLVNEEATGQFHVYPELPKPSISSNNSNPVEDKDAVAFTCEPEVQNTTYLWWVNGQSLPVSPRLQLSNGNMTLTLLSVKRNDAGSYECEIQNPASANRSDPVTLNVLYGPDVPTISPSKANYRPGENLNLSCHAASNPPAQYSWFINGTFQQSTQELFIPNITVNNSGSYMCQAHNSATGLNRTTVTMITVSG
Description: SPR single-cycle kinetics, antibody captured on Protein A, CEACAM-6 injected at three rising concentrations [Cont.]. How it is done: as §1, §2

Experiment [3] concerns the target T3, His-tagged CEACAM1 (human, UniProt P13688 35-428).
T3 construct: 45 kDa SPR analyte; also called CEACAM1-HIS; CEACAM1 analyte
T3 sequence: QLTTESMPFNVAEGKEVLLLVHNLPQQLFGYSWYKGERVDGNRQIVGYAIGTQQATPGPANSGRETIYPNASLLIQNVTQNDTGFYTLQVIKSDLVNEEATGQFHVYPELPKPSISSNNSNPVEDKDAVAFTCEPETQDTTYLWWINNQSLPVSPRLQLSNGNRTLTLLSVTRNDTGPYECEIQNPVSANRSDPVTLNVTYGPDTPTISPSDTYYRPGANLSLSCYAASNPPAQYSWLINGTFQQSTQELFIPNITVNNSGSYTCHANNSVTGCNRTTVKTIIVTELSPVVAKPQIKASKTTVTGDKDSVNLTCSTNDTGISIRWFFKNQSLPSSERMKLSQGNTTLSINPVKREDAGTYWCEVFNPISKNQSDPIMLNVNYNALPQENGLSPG
Description: SPR single-cycle, purified IgG captured. The method, boiled down:
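Surface plasmon resonance single-cycle kinetics on a Biacore T200 at 25° C in HBS-P+ (pH 7.4). Purified IgG was captured on a Series S Protein A chip and His-tagged CEACAM1 was the analyte. Reference-channel and blank-run signals were subtracted. Kon, koff and Kd were fitted, and relative KD was calculated against the parent antibody assayed in the same experiment.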

Experiment [4] deals with T3, His-tagged CEACAM1. Description: SPR single-cycle, supernatant IgG captured. The method, boiled down: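 On a Biacore T200 run at 25° C in HBS-P+ (pH 7.4), IgG captured on Protein A was probed with His-tagged CEACAM1 by single-cycle surface plasmon resonance. Fitted Kon, koff and Kd gave a relative KD referenced to the parent antibody from the same experiment. The IgG came from filtered, ELISA-quantified supernatants of HEK EBNA cells transiently transfected with PEI and harvested after 5-7 days.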

B1: chimeric antibody VH0/Vκ0 (antibody, IgG4, V domains shown)
VH: EVQLVESGGDLVKPGGSLKLACAASGFIFSSHGMSWVRQTPDKRLEWVATISSGGTYTYYPDSVKGRFTISRDNDKNTLYLQMNSLKSEDTAMYYCARHDFDYDAAWFAYWGQGTLVTVSS
VL: QIVLTQSPALMSASPGVKVTMTCSANSSVSYMYWYRQKPRSSPKPWIYLTSNLASGVPARFSGSGSGTSYSLTISSMEAEDAATYYCQQWSSNPPTFGSGTKLEIK
notes: IgG4 (S241P), kappa; also called VH0/Vκ0 (control); Chimeric VH0/Vκ0
With B1, the binding result in experiment [1] and in experiment [2] was “no binding” in each case.

B2: VH1/Vκ8 S29A (antibody, IgG4, V domains shown)
VH: EVQLLESGGGLVQPGGSLRLSCAASGFIFSSHGMSWVRQAPGKGLEWVATISSGGTYTYYPDSVKGRFTISRDNSKNTLYLQMNSLKAEDTAMYYCARHDFDYDAAWFAYWGQGTLVTVSS
VL: EIVLTQSPATLSLSPGERATLSCRANSAVSYMYWYQQKPGQAPRPWIYLTSNRATGVPARFSGSGSGTDYTLTISSLEPEDFAVYYCQQWSSNPPTFGQGTKLEIK
notes: IgG4 (S241P), kappa; also called Parent; Parent (VH1/Vκ8 S29A)
As for B2, in the experiment with His-tagged CEACAM1 [3], the Kd was 480 nM, the dissociation rate constant (koff) worked out at 0.19 s⁻¹, the kon was 400000 M⁻¹ s⁻¹ and the “relative KD to parent” value stood at 1. Moreover, in the experiment with His-tagged CEACAM1 [4], the dissociation constant Kd was determined as 550 nM, the off-rate constant (koff) was 0.053 s⁻¹, the on-rate constant (kon) was determined as 96000 M⁻¹ s⁻¹ and the “relative KD to parent” value stood at 1.

B3: CP08H03/Vκ8 S29A (antibody, IgG4, V domains shown)
VH: EVQLLESGGGLVQPGGSLRLSCAASGFIFSSHGMSWVRQAPGKGLEWVATISSGGTYTYYPDSVKGRFTISRDNSKNTLYLQMNSLKAEDTAMYYCARHDFDYFPYWFAHWGQGTLVTVSS
VL: EIVLTQSPATLSLSPGERATLSCRANSAVSYMYWYQQKPGQAPRPWIYLTSNRATGVPARFSGSGSGTDYTLTISSLEPEDFAVYYCQQWSSNPPTFGQGTKLEIK
notes: IgG4 (S241P), kappa; also called CP08_H03/Parent VL; CP08_H03/Parental
With B3, in the experiment with His-tagged CEACAM1 [3], the Kd was determined as 120 nM, the koff turned out to be 0.0075 s⁻¹, the kon is 63000 M⁻¹ s⁻¹ and the “relative KD to parent” value was 4. For the same molecule, in the experiment with His-tagged CEACAM1 [4], binding was put at a Kd of 130 nM, the koff was found to be 0.0085 s⁻¹, the kon was 65000 M⁻¹ s⁻¹ and the “relative KD to parent” value came to 4.2. In addition, the binding result in experiment [1] is “no binding”. For the same molecule, in experiment [2], the binding result was “no binding”.

B4: CP08H03/CP08F05 (antibody, V domains shown)
VH: EVQLLESGGGLVQPGGSLRLSCAASGFIFSSHGMSWVRQAPGKGLEWVATISSGGTYTYYPDSVKGRFTISRDNSKNTLYLQMNSLKAEDTAMYYCARHDFDYFPYWFAHWGQGTLVTVSS
VL: EIVLTQSPATLSLSPGERATLSCRANSAVSYMYWYQQKPGQAPRPWIYLTSNRATGVPARFSGSGSGTDYTLTISSLEPEDFAVYYCQQWTSNPPTFGQGTKLEIK
notes: IgG4 (S241P), kappa
For B4, in the experiment with His-tagged CEACAM1 [3], the dissociation constant Kd turned out to be 95 nM, the dissociation rate constant (koff) worked out at 0.0069 s⁻¹, the kon was 73000 M⁻¹ s⁻¹ and the “relative KD to parent” value is 5. Besides, in the experiment with His-tagged CEACAM1 [4], binding was put at a Kd of 110 nM, the off-rate constant (koff) was 0.0074 s⁻¹, the kon amounted to 70000 M⁻¹ s⁻¹ and the “relative KD to parent” value turned out to be 5.2. Besides, the binding result in experiment [1] is “no binding”. Besides, in experiment [2], the binding result is “no binding”.

By Kd is commonly meant the equilibrium constant for the complex coming apart. High values mean lower affinity, low ones higher affinity. Usually koff stands for the first-order rate constant of dissociation. For orientation: kon means a measure of how fast the partners come together. Read a high kon as faster complex formation.
